Publication PMC7913776 (Nucleic Acids Research, 2021)

Molecular target: T1, GST-tagged full-length BACH1 protein (mouse, UniProt P97302 1-739)
T1 sequence: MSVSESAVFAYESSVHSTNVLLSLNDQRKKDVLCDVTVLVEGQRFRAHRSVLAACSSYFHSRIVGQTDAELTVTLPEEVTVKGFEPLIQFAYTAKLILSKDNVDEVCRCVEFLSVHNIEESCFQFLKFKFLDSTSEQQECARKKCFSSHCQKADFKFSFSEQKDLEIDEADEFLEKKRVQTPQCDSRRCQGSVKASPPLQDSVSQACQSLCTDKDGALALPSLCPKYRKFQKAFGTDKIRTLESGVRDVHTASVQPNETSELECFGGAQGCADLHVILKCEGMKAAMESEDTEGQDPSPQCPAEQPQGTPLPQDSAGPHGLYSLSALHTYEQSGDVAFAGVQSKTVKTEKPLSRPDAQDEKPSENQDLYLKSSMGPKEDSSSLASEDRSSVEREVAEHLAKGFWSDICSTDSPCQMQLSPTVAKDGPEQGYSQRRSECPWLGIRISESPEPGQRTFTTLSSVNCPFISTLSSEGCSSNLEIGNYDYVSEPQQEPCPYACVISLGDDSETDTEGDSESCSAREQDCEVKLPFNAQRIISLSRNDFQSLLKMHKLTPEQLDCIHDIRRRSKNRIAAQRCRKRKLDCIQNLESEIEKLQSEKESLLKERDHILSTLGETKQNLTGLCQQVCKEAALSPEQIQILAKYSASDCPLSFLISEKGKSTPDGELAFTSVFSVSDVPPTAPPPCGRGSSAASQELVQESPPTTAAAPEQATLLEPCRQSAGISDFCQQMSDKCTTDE
Test: pull-down

binding result: binds
B1: HIS-tagged NANOG (natural protein)
chain: MSVGLPGPHSLPSSEEASNSGNASSMPAVFHPENYSCLQGSATEMLCTEAASPRPSSEDLPLQGSPDSSTSPKQKLSSPEADKGPEEEENKVLARKQKMRTVFSQAQLCALKDRFQKQKYLSLQQMQELSSILNLSYKQVKTWFQNQRMKCKRWQKNQWLKTSNGLIQKGSAPVEYPSIHCSYPQGYLVNASGSLSMWGSQTWTNPTWSSQTWTNPTWNNQTWTNPTWSSQAWTAQSWNGQPWNAAPLHNFGEDFLQPYVQLQQNFSASDLEVNLEATRESHAHFSTPQALELFLNYSVTPPGEI
